In US7183110B2, “Antibody immunoreactive with a 5-enolpyruvylshikimate-3-phosphate synthase” (Monsanto Technology LLC, priority 1990, dated 2007):

Legend:
EPSPS enzymes = experiment: Kinetic characterization of EPSPS enzymes (Km PEP, Ki glyphosate); type: biochemical; conditions: for Ki/Km: Ki glyphosate / Km PEP; for Km: Km of the EPSPS enzyme for phosphoenolpyruvate, PEP ranges tested in table footnotes
Procedure: The EPSPS enzymes from these microorganisms were then subjected to further study and analysis.
When the change introduced into the Petunia EPSPS (GA101) was introduced into a number of other EPSPS enzymes, similar changes in kinetics were observed, an elevation of the Ki for glyphosate and of the Km for PEP.
All protein purification procedures were carried out at 3–5° C. EPSPS enzyme assays were performed using either the phosphate release or radioactive HPLC method, as previously described in Padgette et al., 1987, using 1 mM phosphoenol pyruvate (PEP, Boehringer) and 2 mM shikimate-3-phosphate (S3P) substrate concentrations. For radioactive HPLC assays, ^14C-PEP (Amersham) was utilized. S3P was synthesized as previously described in Wibbenmeyer et al. 1988. N-terminal amino acid sequencing was performed by loading samples onto a Polybrene precycled filter in aliquots while drying. Automated Edman degradation chemistry was used to determine the N-terminal protein sequence, using an Applied Biosystems Model 470A gas phase sequencer (Hunkapiller et al., 1983) with an Applied Biosystems 120A PTH analyzer.

CP4 EPSPS = target: T1, CP4 EPSPS (Agrobacterium sp., UniProt Q9R4E4, S2A); experiment: EPSPS activity from native and synthetic CP4 EPSPS genes expressed in E. coli; type: biochemical, Agrobacterium sp. strain CP4
T1 construct: made in house; host or cells: E. coli, PRecA-gene10L vector
T1 sequence (Q9R4E4 whole entry S2A): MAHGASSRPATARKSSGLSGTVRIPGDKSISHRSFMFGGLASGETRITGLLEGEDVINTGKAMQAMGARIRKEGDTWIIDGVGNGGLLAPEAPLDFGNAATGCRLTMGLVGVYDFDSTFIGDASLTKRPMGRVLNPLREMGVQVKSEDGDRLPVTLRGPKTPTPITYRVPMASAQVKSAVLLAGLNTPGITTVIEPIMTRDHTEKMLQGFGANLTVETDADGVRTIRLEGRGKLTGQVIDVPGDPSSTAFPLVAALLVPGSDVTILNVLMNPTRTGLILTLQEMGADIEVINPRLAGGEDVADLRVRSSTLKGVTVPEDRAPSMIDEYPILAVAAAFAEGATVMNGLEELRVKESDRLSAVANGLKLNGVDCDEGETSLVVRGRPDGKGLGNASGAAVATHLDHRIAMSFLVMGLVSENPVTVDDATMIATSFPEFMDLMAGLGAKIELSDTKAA
Text: A synthetic CP4 gene was designed to change as completely as possible those inimical sequences discussed above. In summary, the gene sequence was redesigned to eliminate as much as possible the following sequences or sequence features (while avoiding the introduction of unnecessary restriction sites): stretches of G's and C's of 5 or greater; and A+T rich regions (predominantly) that could function as polyadenylation sites or potential RNA destabilization region The sequence of this gene is shown in FIG. 8 (SEQ ID NO:9). This coding sequence was expressed in E. coli from the RecA promoter and assayed for EPSPS activity and compared with that from the native CP4 EPSPS gene. […] The N-terminus of the coding sequence was mutagenized to place an SphI site at the ATG to permit the construction of the CTP2-CP4 synthetic fusion for chloroplast import. The following primer was used to accomplish this mutagenesis:
The EPSPS gene was isolated originally from Agrobacterium sp. strain CP4 and expresses a highly tolerant enzyme. The original gene contains sequences that could be inimical to high expression of the gene in some plants. […] The high G+C % in the CP4 EPSPS gene could also result in the formation of strong hairpin structures that may affect expression or stability of the RNA. A plant preferred version of the gene was synthesized and used for these vectors. This coding sequence was expressed in E. coli from a PRecA-gene10L vector (Olins et al., 1988) and the EPSPS activity was compared with that from the native CP4 EPSPS gene. […] The N-terminus of the coding sequence was then mutagenized to place an SphI site (GCATGC) at the ATG to permit the construction of the CTP2-CP4 synthetic fusion for chloroplast import. This change had no apparent effect on the in vivo activity of CP4 EPSPS in E. coli as judged by complementation of the aroA mutant. A CTP-CP4 EPSPS fusion was constructed between the Arabidopsis thaliana EPSPS CTP (Klee et al., 1987) and the CP4 EPSPS coding sequences. The Arabidopsis CTP was engineered by site-directed mutagenesis to place a SphI restriction site at the CTP processing site. This mutagenesis replaced the Glu-Lys at this location with Cys-Met. The CTP2-CP4 EPSPS fusion was tested for import into chloroplasts isolated from Lactuca sativa using the methods described previously (della-Cioppa et al., 1986: 1987).

[1] = system: rabbit anti-EPSPS antibody; experiment: Western analysis with rabbit anti-EPSPS antibody to the Petunia EPSPS protein; type: binding; conditions: crude extracts 50 μg protein; control Petunia EPSPS 20 ng; Protein A-125I development
Text: The presence of EPSPS activity in these extracts was confirmed by enzyme assay. This surprising result, indicating a lack of similarity between the EPSPS's from these bacterial isolates and those previously studied, coupled with the combination of a low Km for PEP and a high Ki for glyphosate, illustrates that these new EPSPS enzymes are different from known EPSPS enzymes (now referred to as Class I EPSPS).

LBAA EPSPS = experiment: appKm and appKi of LBAA EPSPS wild type and G100A variant in E. coli crude lysates; type: biochemical, Achromobacter sp. strain LBAA; conditions: range of PEP: 2–40 μM
Text: One difference that may be noted between the deduced amino acid sequences of the CP4 and LBAA EPSPS proteins is at position 100 where an Alanine is found in the case of the CP4 enzyme and a Glycine is found in the case of the LBAA enzyme. In the Class I EPSPS enzymes a Glycine is usually found in the equivalent position, i.e Glycine96 in E. coli and K. pneumoniae and Glycine101 in Petunia. In the case of these three enzymes it has been reported that converting that Glycine to an Alanine results in an elevation of the appKi for glyphosate and a concomitant elevation in the appKm for PEP (Kishore et al., 1986; Kishore and Shah, 1988; Sost and Amrhein, 1990), which, as discussed above, makes the enzyme less efficient especially under conditions of lower PEP concentrations. The Glycine100 of the LBAA EPSPS was converted to an Alanine and both the appKm for PEP and the appKi for glyphosate were determined for the variant. The Glycine100Alanine change was introduced by mutagenesis using the following primer:
and both the wild type and variant genes were expressed in E. coli in a RecA promoter expression vector (pMON17201 and pMON17264, respectively) and the appKm's and appKi's determined in crude lysates. […] However, in contrast to the results in the Class I G-A variants, the appKm(PEP) in the Class II (LBAA) G-A variant is unaltered. […]

B1: CP4: Class II EPSPS enzyme from Agrobacterium sp. strain CP4 (SEQ ID NO:3) (protein, listed as Agrobacterium sp.)
chain: MSHGASSRPATARKSSGLSGTVRIPGDKSISHRSFMFGGLASGETRITGLLEGEDVINTGKAMQAMGARIRKEGDTWIIDGVGNGGLLAPEAPLDFGNAATGCRLTMGLVGVYDFDSTFIGDASLTKRPMGRVLNPLREMGVQVKSEDGDRLPVTLRGPKTPTPITYRVPMASAQVKSAVLLAGLNTPGITTVIEPIMTRDHTEKMLQGFGANLTVETDADGVRTIRLEGRGKLTGQVIDVPGDPSSTAFPLVAALLVPGSDVTILNVLMNPTRTGLILTLQEMGADIEVINPRLAGGEDVADLRVRSSTLKGVTVPEDRAPSMIDEYPILAVAAAFAEGATVMNGLEELRVKESDRLSAVANGLKLNGVDCDEGETSLVVRGRPDGKGLGNASGAAVATHLDHRIAMSFLVMGLVSENPVTVDDATMIATSFPEFMDLMAGLGAKIELSDTKAA
Question: With B1 as the molecule, how does the Ki/Km (EPSPS enzymes) read?
Answer: The Ki/Km was 227.

Question: And the Km (EPSPS enzymes)?
Answer: Its Km is 12 µM.

Question: What about the “appKm for PEP” value (CP4 EPSPS; expressed in E. coli from a PRecA-gene10L vector) of the same molecule?
Answer: The value was 11.8 µM.

Question: What about the Km (CP4 EPSPS; expressed in E. coli from the RecA promoter, read-out: apparent Km for PEP) of the same molecule?
Answer: Its Km is 11.8 µM.

Question: What about the “signal in Western analysis with rabbit anti-EPSPS antibody” value [1] of the same molecule?
Answer: Its value is “no positive signal could be detected”.

B2: LBAA: Class II EPSPS enzyme from Achromobacter sp. strain LBAA (SEQ ID NO:5); wild type gene expressed from pMON17201 (protein, listed as Agrobacterium sp.)
chain: MSHSASPKPATARRSEALTGEIRIPGDKSISHRSFMFGGLASGETRITGLLEGEDVINTGRAMQAMGAKIRKEGDVWIINGVGNGCLLQPEAALDFGNAGTGARLTMGLVGTYDMKTSFIGDASLSKRPMGRVLNPLREMGVQVEAADGDRMPLTLIGPKTANPITYRVPMASAQVKSAVLLAGLNTPGVTTVIEPVMTRDHTEKMLQGFGADLTVETDKDGVRHIRITGQGKLVGQTIDVPGDPSSTAFPLVAALLVEGSDVTIRNVLMNPTRTGLILTLQEMGADIEVLNARLAGGEDVADLRVRASKLKGVVVPPERAPSMIDEYPVLAIAASFAEGETVMDGLDELRVKESDRLAAVARGLEANGVDCTEGEMSLTVRGRPDGKGLGGGTVATHLDHRIAMSFLVMGLAAEKPVTVDDSNMIATSFPEFMDMMPGLGAKIELSIL
Question: B2 was tested. Which Ki/Km (EPSPS enzymes) did it give?
Answer: The Ki/Km was ~7.9.

Question: What about the Km (EPSPS enzymes) of the same molecule?
Answer: The Km was 7.3 to 8 µM.

Question: What about the “appKm(PEP)” value (LBAA EPSPS) of the same molecule?
Answer: Its value is 5.3 µM.

Question: What about the “signal in Western analysis with rabbit anti-EPSPS antibody” value [1] of the same molecule?
Answer: Its value is “no positive signal could be detected”.
